± gives the standard error. Variants at the floor of the assay were thinned out.
B1: glmS ribozyme (parent)
chain: AUAAAAGCGCCAGAACUACAGAAAUGUAGUUGACGAGGAGGAGGUUUAUCGAAUUUUCGGCGGAUGCCUCCAAA

Key:
Settings in all cases: with glucosamine-6-phosphate
glucosamine-6-phosphate [1] = variants of: B1; assay: self-cleavage kobs at 640 uM GlcN6P; higher = faster cleavage; RNA array
In short: (§1)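 Tiles of sequenced MiSeq chips were imaged over ~14 h at 37 °C. On them, barcoded ribozyme variants had been transcribed in situ by E. coli RNA polymerase and were tracked via a hybridised Cy3 probe while glucosamine-6-phosphate (40 μM to 10 mM) in HEPES/KCl/Mg(OAc)2 buffer flowed in. Per-tile medians, normalised to baseline and to non-cleaving reference variants, were fit to one- or two-exponential decays for kobs, and weighted Michaelis–Menten fits gave kcat and KM.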

glucosamine-6-phosphate [2] = variants of: B1; assay: self-cleavage kobs at 2500 uM GlcN6P; higher = faster cleavage; RNA array
In short: as §1

glucosamine-6-phosphate [3] = variants of: B1; assay: self-cleavage kobs at 10000 uM GlcN6P; higher = faster cleavage; RNA array
In short: as §1

Variant | self-cleavage kobs at 640 uM GlcN6P (glucosamine-6-phosphate [1]) [s⁻¹] | self-cleavage kobs at 2500 uM GlcN6P (glucosamine-6-phosphate [2]) [s⁻¹] | self-cleavage kobs at 10000 uM GlcN6P (glucosamine-6-phosphate [3]) [s⁻¹]
A6G G29U G62C | < 1e-05 |  | 
G43C U46A A48C | < 1e-05 | < 1e-05 | < 1e-05
G13A C16A C68G | 7.67e-05 ± 3.7e-05 |  | 
C10G U30C C68G | 9.65e-05 ± 3.5e-05 |  | 
G37U A39U G40U A48U C50G C67A | < 1e-05 | < 1e-05 | 
C11U G41U A48G | < 1e-05 |  | 
C10G A14U | < 1e-05 |  | < 1e-05
C8G G35A U55C G60U C67A | < 1e-05 | < 1e-05 | 
G13C G29C | 2.89e-05 ± 9.5e-06 | 3.23e-05 ± 1.2e-05 | 9.98e-05 ± 2.1e-05
A33C G35C A42G G51U C70G | < 1e-05 | < 1e-05 | 
G9U A36G A39U | < 1e-05 | < 1e-05 | 
G29C G59U C71U | < 1e-05 |  | 
A39G A42G C50A | < 1e-05 | < 1e-05 | 
C10A C67U C68U | 0.000489 ± 0.00014 |  | 
G41C C50U G59U | < 1e-05 |  | 
U47G U49A A52U | < 1e-05 |  | 
G32A A48C U55G G66A | < 1e-05 |  | 
G13U G29A U31A G37C | < 1e-05 |  | 
U45C U47C | 0.000179 ± 5.5e-05 | 0.000515 ± 0.00013 | 
G41A G44U G66A | < 1e-05 | < 1e-05 | 
G29U C34U U55A | < 1e-05 | < 1e-05 | 
A6U U69G | 0.000103 ± 2.3e-05 | 4.72e-05 ± 1.4e-05 | 

Variant | self-cleavage kobs at 640 uM GlcN6P (glucosamine-6-phosphate [1]) [s⁻¹] | self-cleavage kobs at 2500 uM GlcN6P (glucosamine-6-phosphate [2]) [s⁻¹] | self-cleavage kobs at 10000 uM GlcN6P (glucosamine-6-phosphate [3]) [s⁻¹]
G32C U45G G60A C68G | < 1e-05 | < 1e-05 | 
A33C A53U G59A U69G | 0.000208 ± 8.8e-05 |  | 
G44C U57G C58U | < 1e-05 |  | 
C16U A39U A48U | 3.71e-05 ± 1.6e-05 | 7.54e-05 ± 1.5e-05 | 
U46C G51U A52G U55A C61G | < 1e-05 | < 1e-05 | 
A12C U30C A39U | 0.000221 ± 4.3e-05 | 0.000452 ± 0.00012 | 
G35U C67A U69C | < 1e-05 |  | 
G9C A33G G35A G63U | < 1e-05 |  | 
C58U U69A | 6.22e-05 ± 2.6e-05 |  | 
G40A G41A A42U C68G | < 1e-05 | < 1e-05 | 
C8G G32U G38U G44A | < 1e-05 |  | 
C34A A53U C70U | < 1e-05 |  | 
G32A G44U C67G | 0.000431 ± 0.0001 | 0.00127 ± 0.00059 | 
G38C G41U G44C | < 1e-05 | < 1e-05 | 
A12G A36C U45C G60U | < 1e-05 |  | 
C10G G35A A42C | < 1e-05 | < 1e-05 | 
A33U C34U A36C U69G | 0.000124 ± 6e-05 |  | 
G35C G43U G60C | < 1e-05 |  | < 1e-05
G13U U55G U56C | 7.76e-05 ± 2.4e-05 | 0.000112 ± 2.5e-05 | 
G32U C58A C67A | 7.59e-05 ± 1.8e-05 | 0.000241 ± 4.9e-05 | 
U46G G51U U56G U69G | 0.000445 ± 0.00011 |  | 
G60C C70A | < 1e-05 |  | < 1e-05

Variant | self-cleavage kobs at 640 uM GlcN6P (glucosamine-6-phosphate [1]) [s⁻¹] | self-cleavage kobs at 2500 uM GlcN6P (glucosamine-6-phosphate [2]) [s⁻¹] | self-cleavage kobs at 10000 uM GlcN6P (glucosamine-6-phosphate [3]) [s⁻¹]
G37C G40U U46G G63U | < 1e-05 |  | < 1e-05
A14U A15G G35U | < 1e-05 | < 1e-05 | 
C8U C16A G62U | < 1e-05 | < 1e-05 | 
A6G A14C C16G G40C | < 1e-05 | < 1e-05 | 
A12G G43C G51U G63A U65C C68A | < 1e-05 | < 1e-05 | 
U47G U55A C68G C71G | 0.000142 ± 4.5e-05 |  | 4.14e-05 ± 1.5e-05
A36C G37A A64C G66A | < 1e-05 |  | 
G37A A42G C71G | 8.96e-05 ± 2.4e-05 | 5.5e-05 ± 1.6e-05 | 8.16e-05 ± 2.3e-05
C11G G13U C50G G60U C61G | 5.02e-05 ± 2.4e-05 |  | 
A39G G40U C58G | < 1e-05 |  | 
A33C G35A U46A | < 1e-05 |  | 
U31C A42U G44A | < 1e-05 | < 1e-05 | 
A6C C11A U47C | < 1e-05 | < 1e-05 | 
C11U G35C U46A U69G | < 1e-05 | < 1e-05 | 
G35C U49A G51U A53U | < 1e-05 | < 1e-05 | 
G7U A33U G37U G63A | < 1e-05 | < 1e-05 | 
U56C C61U C71G | < 1e-05 |  | 
G9C C10U U55A | < 1e-05 | < 1e-05 | 
G7U U30A G51A | < 1e-05 |  | 
C11G C50U U57A G60A C67U | 0.000609 ± 0.00017 |  | 
A6G A15C G32U | < 1e-05 |  | 
A48U C58A C61G | < 1e-05 |  | 

Variant | self-cleavage kobs at 640 uM GlcN6P (glucosamine-6-phosphate [1]) [s⁻¹] | self-cleavage kobs at 2500 uM GlcN6P (glucosamine-6-phosphate [2]) [s⁻¹] | self-cleavage kobs at 10000 uM GlcN6P (glucosamine-6-phosphate [3]) [s⁻¹]
C16U C58U C67U C70U | 0.000267 ± 6.7e-05 | 6.37e-05 ± 2.5e-05 | 
C34U A39C C50G | < 1e-05 |  | 
C8U G13C A14C | < 1e-05 | < 1e-05 | 
G7U G35U C58U C70A C71U | < 1e-05 |  | 
U31G U49G C67A | 4.09e-05 ± 1.4e-05 |  | 
G7C G43U A53C G66U | < 1e-05 |  | 
A6C C8U G38C G51C | < 1e-05 | < 1e-05 | 
C34A G40C C61U | < 1e-05 |  | 
G13U C61U C70G | < 1e-05 |  | 
A42C U65G U69G | 0.000819 ± 0.00019 | 0.00302 ± 0.00061 | 0.00402 ± 0.001
U49C U54A G63U | < 1e-05 | < 1e-05 | 
C8A G35A G59A C70U | < 1e-05 | < 1e-05 | 
G60A C61G C67G | < 1e-05 |  | 
G29C G40C C58G | < 1e-05 |  | 
U30G A42G U45C C70A C71A | < 1e-05 |  | 
G26U A42G U55C | 0.0103 ± 0.0029 |  | 
C16A G63U C67U | 0.000112 ± 4.7e-05 |  | 
A6G G38A C50G | 0.00032 ± 7.9e-05 | 0.000113 ± 3.5e-05 | 
C50A C67U C70G | 6.04e-05 ± 2.3e-05 |  | 
A14C G40U C67U | < 1e-05 |  | 
C58G U65C | < 1e-05 | < 1e-05 | 
C58U G62A C68G | 6.69e-05 ± 2.4e-05 |  | 

Variant | self-cleavage kobs at 640 uM GlcN6P (glucosamine-6-phosphate [1]) [s⁻¹] | self-cleavage kobs at 2500 uM GlcN6P (glucosamine-6-phosphate [2]) [s⁻¹] | self-cleavage kobs at 10000 uM GlcN6P (glucosamine-6-phosphate [3]) [s⁻¹]
C10U A52C C58G | < 1e-05 | < 1e-05 | 
G35A U55G G63A A64G | < 1e-05 |  | 
G32A G41A C50U | < 1e-05 | < 1e-05 | 
A6C C34G C61U | < 1e-05 | < 1e-05 | 
C8A U31C G32A | < 1e-05 |  | 
A15G G44C G59U | < 1e-05 | < 1e-05 | 
G35C A36U G40A | < 1e-05 | < 1e-05 | 
A36G C58A G59U C70U | < 1e-05 | < 1e-05 | 
C8U A15U U46G G51A G66A | < 1e-05 |  | 
G29C U45A C67A | 0.000165 ± 4.8e-05 |  | 
G7U G35U A42G | < 1e-05 | < 1e-05 | 
G44U A48U C67U | 0.000119 ± 4.8e-05 | 0.000418 ± 0.00012 | 
A15U U45A A53C | 0.000941 ± 0.00022 |  | 
G32C G63A U65A | < 1e-05 | < 1e-05 | 
A36C A42U G44C A52U | < 1e-05 |  | 
A6G G32C G51C | < 1e-05 |  | 
A12U C16G G32A | 9.86e-05 ± 2.9e-05 | 0.000137 ± 4.8e-05 | 
G9A C50U | < 1e-05 | < 1e-05 | < 1e-05
G13U G29U A52C | < 1e-05 |  | 
G13U U56C A64U | < 1e-05 | < 1e-05 | < 1e-05
C10U G29U U55G | < 1e-05 | < 1e-05 | 
A12G U46G C58G G63U U69A | 0.000158 ± 6.3e-05 |  | 

Variant | self-cleavage kobs at 640 uM GlcN6P (glucosamine-6-phosphate [1]) [s⁻¹] | self-cleavage kobs at 2500 uM GlcN6P (glucosamine-6-phosphate [2]) [s⁻¹] | self-cleavage kobs at 10000 uM GlcN6P (glucosamine-6-phosphate [3]) [s⁻¹]
G7A U56G U69A | 0.00091 ± 0.00042 |  | 
A12C A20C | 0.00491 ± 0.0012 | 0.0118 ± 0.0035 | 
G13A U49A U69A | 0.00011 ± 3.1e-05 |  | 
C8A G9A G13U | < 1e-05 |  | 
G13C C50A | < 1e-05 |  | < 1e-05
G29C G37A G38U A52G | < 1e-05 |  | 
C34G G40U U46A | < 1e-05 |  | 
A6U G9C A12C U55A | < 1e-05 | < 1e-05 | 
G51U A53U U54A | < 1e-05 |  | < 1e-05
G13U G62C C70U | < 1e-05 |  | 
A12U G62U | < 1e-05 |  | < 1e-05
A6C G38A C50G C67U | 0.000113 ± 4.8e-05 | 7.23e-05 ± 1.8e-05 | 4.13e-05 ± 1.3e-05
A15C U30A U31G C34G C67G | 5.05e-05 ± 2.3e-05 |  | 
U31C G32A A39G | 0.000252 ± 4.9e-05 |  | 0.0014 ± 0.00028
C10A C16A A36C A42G U46A U54C U56G G63U | < 1e-05 |  | < 1e-05
A14U U65A C70U | 0.000274 ± 4.7e-05 | 0.000248 ± 9.4e-05 | 0.000945 ± 0.0002
G26U A42U | 6.28e-05 ± 1.6e-05 | 0.000124 ± 2.5e-05 | 
A6C U46C U47C G59A | < 1e-05 |  | 
G29U A33C C50U U57A C61U | < 1e-05 |  | 
U31G G44A C68U | < 1e-05 |  | 
U31G G35C C68G | < 1e-05 | < 1e-05 | 
G32C G44C A48C C67G | < 1e-05 | < 1e-05 | 
